According to patent US10919943B2, “Mutant proteins enabling agrochemical control of plant gene expression” (The Regents of the University of California, priority 2016, dated 2021):
Where a chain is given by its changes, count along the chain named. Marks after values point to notes of the source that are not given here.

Experiments:
[1] = molecular target: T1, wild type HAB1 (Arabidopsis thaliana, UniProt O49686+Q9CAJ0, A160V/F108A/F159V/K59R/M158I/S122G/T162D/V81I/Y58H); test: In vitro pull down assay with recombinant 6×-His receptor and GST-PP2C; type: binding; conditions: 10 μM mandipropamid; FIG. 8
T1 construct: made in house; host or cells: E. coli BL21 [DE3]pLysS
From the text: (§1) To characterize the orthogonal orthogonal module biochemically, we produced recombinant forms of 6×-His-PYR1*^-MANDI, 6×-His-PYR1, GST-HAB1*, and GST-HAB1 in E. coli, as described above, and tested wild type and orthogonal receptors for their ability to inhibit GST-HAB1 activity in vitro, as well as their physical interactions with one another using pull-down assays. To characterize PYR1*^-MANDI and HAB1* in vitro, we cloned PYR1*^-MANDI into pET28 to generate a 6×-His tagged receptor and cloned HAB1* into pGEX-4T-1 to create a GST-fusion protein. Recombinant 6×-His-PYR1*^-MANDI and GST-HAB1* were prepared, as described above in example 1C, and used in experiments with previously prepared 6×-His-PYR1 and GST-HAB1. To conduct pull down assays, the specified recombinant receptor and PP2C (20 and 140 μg respectively), were combined in 500 μl PP2C assay buffer (100 mM Tris-HCl (pH 7.9), 100 mM NaCl, 1 mM MnCl2, 1% 13-ME and 0.3% BSA) containing either 10 μM ABA, 10 μM mandipropamid or 1% DMSO carrier solvent as a negative control. The final protein concentrations in the reactions are 1.6 μM receptor and 3.4 μM PP2C. The reactions were incubated for 90 minutes at room temperature (RT) and 20 μl of PrepEase (USB) His-tagged protein purification resin (20 mg) was added. The resin and reaction mixtures were incubated for 30 minutes at RT with gentle shaking at 5 minute intervals. The resin was washed five times and 100 μl of SDS-PAGE buffer was added and boiled for 5 minutes. After centrifugation 20 μl of supernatant was analyzed by SDS-PAGE.

[2] = Phosphatase activity of recombinant GST-HAB1 proteins (4-methylumbeliferyl phosphate); type: biochemical; conditions: 1 μg protein, percent control (GST-HAB1); FIG. 7
From the text: In the presence of ABA, wild type PYR1 binds to HAB1 and docks into its active site, which inhibits its enzymatic activity by blocking access of substrates. To characterize the orthogonal PYR1^! and HAB1^! interaction biochemically, we produced recombinant forms of each protein in E. coli, along with the wild type form, and tested the wild type and orthogonal mutant for their ability to inhibit HAB1 and HAB1^! activities in vitro. We cloned PYR1^! into pET28 to generate 6×-His tagged receptor and cloned HAB1^! into pGEX-4T-1 to create a GST-fusion protein. The previously constructed (S.-Y. Park et al., 2009) wild type 6×-His-PYR1 and GST-HAB1 constructs were used for producing recombinant wild type proteins. The 6×-His-tagged receptors and GST-tagged PP2Cs were expressed and purified as previously described. […] The plates were read using a Victor 2 plate reader (PerkinElmer) (355 nm excitation, 460 nm emission) and assays run in triplicate. The PP2C activity values reported are expressed as percent control values, which were calculated by including the carrier solvent (1% DMSO) and the specific receptor assayed, but no ligand. […]
To characterize HAB1^!-3 and HAB1* in vitro, we cloned them into pGEX-4T-1 to create GST-fusion proteins. […] The PP2C activity values reported are expressed as percent control (GST-HAB1) from triplicate measurements.

[3] = molecular target: T2, wild type PYR1 (Arabidopsis thaliana, UniProt O49686); test: In vitro pull down assay with recombinant 6×-His receptor and GST-PP2C; type: binding; conditions: FIG. 8
T2 construct: made in house; host or cells: E. coli BL21 [DE3]pLysS
T2 sequence (O49686 1-191): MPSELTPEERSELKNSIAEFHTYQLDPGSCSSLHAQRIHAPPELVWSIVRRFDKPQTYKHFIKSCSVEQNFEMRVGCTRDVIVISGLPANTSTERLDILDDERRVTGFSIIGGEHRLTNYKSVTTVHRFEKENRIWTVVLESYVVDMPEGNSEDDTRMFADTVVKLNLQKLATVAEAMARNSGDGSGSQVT
From the text: as §1

T1 sequence (O49686 whole entry Y58H/K59R/V81I/F108A/S122G/M158I/F159V/A160V/T162D): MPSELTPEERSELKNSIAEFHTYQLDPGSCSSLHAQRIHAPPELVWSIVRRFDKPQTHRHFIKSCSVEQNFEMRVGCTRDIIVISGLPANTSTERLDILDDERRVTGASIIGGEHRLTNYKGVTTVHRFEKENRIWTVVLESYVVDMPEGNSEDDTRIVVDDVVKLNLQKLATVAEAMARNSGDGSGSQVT
T1 sequence (Q9CAJ0 23-511): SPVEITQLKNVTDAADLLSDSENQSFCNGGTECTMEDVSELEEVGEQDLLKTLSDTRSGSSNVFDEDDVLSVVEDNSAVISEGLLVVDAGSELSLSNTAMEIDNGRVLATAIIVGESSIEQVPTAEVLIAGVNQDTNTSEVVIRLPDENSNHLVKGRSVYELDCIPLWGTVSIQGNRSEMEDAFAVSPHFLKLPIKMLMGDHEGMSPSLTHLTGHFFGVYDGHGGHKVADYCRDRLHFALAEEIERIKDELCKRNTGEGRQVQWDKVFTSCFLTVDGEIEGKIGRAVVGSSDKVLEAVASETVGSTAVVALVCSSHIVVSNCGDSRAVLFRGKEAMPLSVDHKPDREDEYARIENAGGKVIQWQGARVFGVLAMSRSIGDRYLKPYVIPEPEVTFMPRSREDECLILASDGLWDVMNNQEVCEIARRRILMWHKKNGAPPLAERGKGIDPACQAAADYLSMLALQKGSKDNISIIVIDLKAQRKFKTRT

B1: PYR1*^-MANDI: PYR1 mutant with 9 mutations, most sensitive to mandipropamid (protein, listed as Arabidopsis thaliana)
chain: T2 sequence (O49686 1-191) with Y58H, K59R, V81I, F108A, S122G, M158I, F159V, A160V, T162D
[1]
  binding to wild type HAB1: can bind

B2: HAB1*: catalytically inactive orthogonal pentuple HAB1 mutant (protein, listed as Arabidopsis thaliana)
chain: MTPAVAMTLSLAANTMCESSPVEITQLKNVTDAADLLSDSENQSFCNGGTECTMEDVSELEEVGEQDLLKTLSDTRSGSSNVFDEDDVLSVVEDNSAVISEGLLVVDAGSELSLSNTAMEIDNGRVLATAIIVGESSIEQVPTAEVLIAGVNQDTNTSEVVIRLPDENSNHLVKGRSVYELDCIPLWGTVSIQGNASEMEAAFAVSPHFLKLPIKMLMGDHEGMSPSLTHLTGHFFGVYDGHGGHKVADYCRDRLHFALAEEIERIKDELCKRNTGEGRQVQWDKVFTSCFLTVDGEIEGKIGRAVVGSSDKVLEAVADETVGSTAVVALVCSSHIVVSNCGDSRAVLFRGKEAMPLSVDHKPDREDEYARIENAGGKVIQWQGARVFGRLAMSRSIGDRYLKPYVIPEPEVTFMPRSREDECLILASDGLWDVMNNQEVCEIARRRILMWHKKNGAPPLAERGKGIDPACQAAADYLSMLALQKGSKDNISIIVIDLKAQAKFKTRT
[2]
  catalytic activity in vitro: Neither HAB1^!-3 or HAB1* display detectable catalytic activity
[3]; 10 μM ABA
  binding to wild type PYR1: does not bind
[3]; 10 μM mandipropamid
  binding to wild type PYR1: does not bind
